{
  "source": "paper PMC3035450",
  "data": [
    {"target": "thrombin (UniProt P00734;P00734 328-363;364-622)", "assay": "SPR", "units": {"Kd": "nM"}, "values": [
      {"binder": "GGTTGGTGTGGTTGG (structured_DNA, UNA-G at 2)", "note": "[G2]", "Kd": "298 ± 5.7"},
      {"binder": "GGTTGGTGTGGTTGG (structured_DNA, UNA-G at 15)", "note": "[G15]", "Kd": "155 ± 7.4"},
      {"binder": "GGTTGGTGTGGTTGG (structured_DNA, UNA-G at 1)", "note": "[G1]", "Kd": "95.4 ± 3.9"},
      {"binder": "GGTTGGTGTGGTTGG (structured_DNA)", "note": "[TBA]", "Kd": "103 ± 5.1"},
      {"binder": "GGTTGGTGTGGTTGG (structured_DNA, UNA-G at 6)", "note": "[G6]", "Kd": "287 ± 12.3"},
      {"binder": "GGTTGGTGTGGTTGG (structured_DNA, UNA-G at 8)", "note": "[G8]", "Kd": "913 ± 21.2"},
      {"binder": "GGTTGGTGTGGTTGG (structured_DNA, UNA-G at 5)", "note": "[G5]", "Kd": "425 ± 17.7"},
      {"binder": "GGTTGGTGTGGTTGG (structured_DNA, UNA-G at 10)", "note": "[G10]", "Kd": "222 ± 9.3"}
    ]}
  ]
}
